The record followed here is the supplement of paper PMC10567573.

B1: TOR1AIP2 (parent)
chain: YKYCDHENAAFKDVALVLTVLLEE
B2: SLC19A2 (parent)
chain: FASLRPSEPFLTPYLLGPDKNLTE
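Also: lentivirally expressed fusions sorted by FACS into six bins by GFP to DsRed ratio, PSI derived from sequencing read proportions per bin multiplied by bin number.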

Variants of B1 are the subject of the first data set. As to the kind of experiment: protein stability index of a GFP-peptide fusion (GPS, HEK-293T) (PSI 1-6); higher = more stable. The conditions noted are these: c terminus: a fixed tail appended.
Take CKYCDHENAAFKDVALVLTVLLEE [Y1C]: the protein stability index came out at 2.66.

In the next data set the parent is B2. The description is as above. The conditions noted are these: c terminus: a fixed tail appended.
With FASLRSSEPFLTPYLLGPDKNLTE [P6S], the protein stability index worked out at 1.78.

For the variant FASLRISEPFLTPYLLGPDKNLTE [P6I], the protein stability index is 3.26.

As for FASLRYSEPFLTPYLLGPDKNLTE [P6Y], the protein stability index came out at 1.83.

On to FASLRNSEPFLTPYLLGPDKNLTE [P6N], for which the protein stability index was found to be 1.76.

In the case of FASLRWSEPFLTPYLLGPDKNLTE [P6W], the protein stability index was determined as 2.98.

On to FASLRVSEPFLTPYLLGPDKNLTE [P6V], for which the protein stability index amounted to 1.9.

As to FASLRPSEPFLTPYLLGNDKNLTE [P18N], the protein stability index was found to be 1.48.

Take FASLRPSEPFLTPYLLGRDKNLTE [P18R]: the protein stability index was 1.55.

As for FASLRPSEPFLTPYLLGTDKNLTE [P18T], the protein stability index came to 1.4.

Take FASLRPSEPFLTPYLLGCDKNLTE [P18C]: the protein stability index turned out to be 1.98.

As to FASLRPSEPFLTPYLLGEDKNLTE [P18E], the protein stability index was 2.27.

For FASLRPSEPFLTPYLLGMDKNLTE [P18M], the protein stability index is 2.06.

Regarding FASLRPSEPFLTPYLLGSDKNLTE [P18S], the protein stability index was determined as 1.87.

For FASLRPSEPFLTPYLLGYDKNLTE [P18Y], the protein stability index stood at 1.61.

As for FASLRPSEPFLTPYLLGIDKNLTE [P18I], the protein stability index was determined as 2.31.

With FASLRPSEPFLTPYLLGVDKNLTE [P18V], the protein stability index was 1.41.

For the variant FASLLPSEPFLTPYLLGPDKNLTE [R5L], the protein stability index was 2.1.

In the case of FASLNPSEPFLTPYLLGPDKNLTE [R5N], the protein stability index was 1.68.

For the variant FASLDPSEPFLTPYLLGPDKNLTE [R5D], the protein stability index was determined as 1.73.

Take FASLAPSEPFLTPYLLGPDKNLTE [R5A]: the protein stability index is 2.03.

Consider FASLIPSEPFLTPYLLGPDKNLTE [R5I], for which the protein stability index worked out at 2.13.

As for FASLPPSEPFLTPYLLGPDKNLTE [R5P], the protein stability index stood at 2.36.

FASLFPSEPFLTPYLLGPDKNLTE [R5F]: the protein stability index was 2.32.

Consider FASLKPSEPFLTPYLLGPDKNLTE [R5K], for which the protein stability index stood at 1.88.

Consider FASLRPSEPFLTPYLLGPDKNLSE [T23S], for which the protein stability index stood at 1.7.

As for FASLRPSEPFLTPYLLGPDKNLGE [T23G], the protein stability index amounted to 1.86.

With FASLRPSEPFLTPYLLGPDKNLPE [T23P], the protein stability index was found to be 2.31.

For FASLRPSEPFLTPYLLGPDKNLIE [T23I], the protein stability index amounted to 1.58.

In the case of FASLRPSEPFLTPYLLGPDKNLWE [T23W], the protein stability index amounted to 1.65.

FASLRPSEPFLTPYLLGPDKNLYE [T23Y]: the protein stability index came out at 2.27.

For FASLRPSEPFLTPYLLGPDKNLME [T23M], the protein stability index was 1.52.

With FASLRPSEPFLTPYLLGPDKNLFE [T23F], the protein stability index turned out to be 1.3.

For FASLRPSEPFLTPYLLGPDKNLDE [T23D], the protein stability index stood at 1.97.

Turning to FASLRPSEPFLTPYLLGPDKYLTE [N21Y], the protein stability index was found to be 2.42.

Take FASLRPSEPFLTPYLLGPDKSLTE [N21S]: the protein stability index was 1.47.

As for FASLRPSEPFLTPYLLGPDKPLTE [N21P], the protein stability index was 1.31.

In the case of FASLRPSEPFLTPYLLGPDKVLTE [N21V], the protein stability index was found to be 2.51.

Turning to FASLRPSEPFLTPYLLGPDKMLTE [N21M], the protein stability index worked out at 2.39.

As to FASLRPSEPFLTPYLLGPDKLLTE [N21L], the protein stability index worked out at 1.87.

Take FQSLRPSEPFLTPYLLGPDKNLTE [A2Q]: the protein stability index turned out to be 1.72.

For the variant FYSLRPSEPFLTPYLLGPDKNLTE [A2Y], the protein stability index came out at 2.05.

On to FWSLRPSEPFLTPYLLGPDKNLTE [A2W], for which the protein stability index was determined as 2.21.

With FPSLRPSEPFLTPYLLGPDKNLTE [A2P], the protein stability index is 2.6.

Take FGSLRPSEPFLTPYLLGPDKNLTE [A2G]: the protein stability index came to 2.74.

Consider FASLRPSEPFLTPYLLGPDKNLTT [E24T], for which the protein stability index turned out to be 1.8.

In the case of FASLRPSEPFLTPYLLGPDKNLTV [E24V], the protein stability index was determined as 1.49.

Turning to FASLRPSEPFLTPYLLGPDKNLTG [E24G], the protein stability index worked out at 2.15.

As for FASLRPSEPFLTPYLLGPDKNLTI [E24I], the protein stability index worked out at 2.1.

Consider FASLRPSEPFLTPYLLGPDKNLTF [E24F], for which the protein stability index came to 2.45.

Take FASLRPSEPFLTPYLLGPDKNLTN [E24N]: the protein stability index was 1.38.

For FASLRPSEPFLTPYLLGPDKNLTC [E24C], the protein stability index came to 2.46.

For the variant FASLRPSEPFLTPYLLGPDKNLTD [E24D], the protein stability index worked out at 2.01.

With FASLRPSEPFLTPYLLGPEKNLTE [D19E], the protein stability index was determined as 2.24.

As to FASLRPSEPFLTPYLLGPIKNLTE [D19I], the protein stability index was determined as 1.92.

Turning to FASLRPSEPFLTPYLLGPVKNLTE [D19V], the protein stability index came to 2.16.

On to FASLRPSEPFLTPYLLGPLKNLTE [D19L], for which the protein stability index was 1.58.

On to FASLRPSEPFLTPYLLGPPKNLTE [D19P], for which the protein stability index turned out to be 1.67.

As to FASLRPSEPFLTPYLLGPGKNLTE [D19G], the protein stability index turned out to be 1.75.

With FASLRPSEPFLTPYLLGPRKNLTE [D19R], the protein stability index was determined as 2.25.

As for FASLRPQEPFLTPYLLGPDKNLTE [S7Q], the protein stability index is 1.76.

Regarding FASLRPKEPFLTPYLLGPDKNLTE [S7K], the protein stability index came out at 1.98.

For FASLRPIEPFLTPYLLGPDKNLTE [S7I], the protein stability index turned out to be 1.5.

On to FASLRPWEPFLTPYLLGPDKNLTE [S7W], for which the protein stability index is 3.01.

As for FASLRPHEPFLTPYLLGPDKNLTE [S7H], the protein stability index came out at 2.03.

Turning to FASLRPAEPFLTPYLLGPDKNLTE [S7A], the protein stability index amounted to 1.68.

Regarding FASLRPYEPFLTPYLLGPDKNLTE [S7Y], the protein stability index amounted to 1.42.

For the variant FASLRPTEPFLTPYLLGPDKNLTE [S7T], the protein stability index was 1.75.

As to FASLRPLEPFLTPYLLGPDKNLTE [S7L], the protein stability index was 1.72.

Regarding FASLRPNEPFLTPYLLGPDKNLTE [S7N], the protein stability index was found to be 1.9.

For the variant FASLRPFEPFLTPYLLGPDKNLTE [S7F], the protein stability index is 2.01.

Consider FASLRPSEPFLTPYLLGPDKNWTE [L22W], for which the protein stability index worked out at 1.98.

On to FASLRPSEPFLTPYLLGPDKNDTE [L22D], for which the protein stability index stood at 2.65.

FASLRPSEPFLTPYLLGPDKNPTE [L22P]: the protein stability index is 1.86.

On to FASLRPSEPFLTPYLLGPDKNATE [L22A], for which the protein stability index is 2.1.

In the case of FASLRPSEPFLTPYLLGPDKNMTE [L22M], the protein stability index came out at 1.59.

In the case of FASLRPSEPFLTPYLLGPDKNHTE [L22H], the protein stability index stood at 2.16.

In the case of FASLRPSEPFLTPYLLGPDKNNTE [L22N], the protein stability index turned out to be 2.35.

Take FASLRPSTPFLTPYLLGPDKNLTE [E8T]: the protein stability index was determined as 1.81.

For the variant FASLRPSCPFLTPYLLGPDKNLTE [E8C], the protein stability index stood at 1.68.

For the variant FASLRPSSPFLTPYLLGPDKNLTE [E8S], the protein stability index turned out to be 1.98.

Take FASLRPSGPFLTPYLLGPDKNLTE [E8G]: the protein stability index worked out at 1.99.

FASLRPSAPFLTPYLLGPDKNLTE [E8A]: the protein stability index is 1.49.

For the variant FASLRPSEPFLTPSLLGPDKNLTE [Y14S], the protein stability index turned out to be 2.21.

Take FASLRPSEPFLTPPLLGPDKNLTE [Y14P]: the protein stability index was determined as 3.25.

As for FASLRPSEPFLTPTLLGPDKNLTE [Y14T], the protein stability index amounted to 2.58.

For FASLRPSEPFLTPILLGPDKNLTE [Y14I], the protein stability index worked out at 2.66.

FASLRPSEPFLTPHLLGPDKNLTE [Y14H]: the protein stability index worked out at 2.57.

In the case of FASLRPSEPFLTPELLGPDKNLTE [Y14E], the protein stability index worked out at 2.76.

As to FASLRPSEIFLTPYLLGPDKNLTE [P9I], the protein stability index was 1.77.

Regarding FASLRPSEFFLTPYLLGPDKNLTE [P9F], the protein stability index amounted to 3.54.

As for FASLRPSEYFLTPYLLGPDKNLTE [P9Y], the protein stability index was 2.29.

Turning to FASLRPSEGFLTPYLLGPDKNLTE [P9G], the protein stability index was found to be 2.18.

With FASLRPSENFLTPYLLGPDKNLTE [P9N], the protein stability index is 2.52.
